# Measured values: US20190024066A1
# “And” between values parts separate entries of the source, which are not always exact repeats. Equal values may be shown once.
# How the values were obtained:
# [1] = target: His-tagged FcγRI (R&D Systems) (human) (UniProt P12314); test: competition ELISA, His-FcγRI, competitor coated anti-idiotype antibody; 50 µg/ml
# [2] = target: CD20 on Raji cells (UniProt P11836); test: flow cytometry, Raji cells; 0.039063 µg/mL
# [3] = target: His-tagged FcγRI (R&D Systems) (human) (UniProt P12314); test: competition ELISA, His-FcγRI, competitor coated anti-idiotype antibody; 0.0032 µg/ml
# [4] = target: His-tagged FcγRIIa (FcγRIIaR, R&D Systems) (human) (UniProt P12318); test: competition ELISA, His-FcγRIIaR, competitor coated HZ 15C1; concentration cell 0.790496
# [5] = target: CD20 on Raji cells (UniProt P11836); test: flow cytometry, Raji cells; […]
# [6] = target: human neonatal Fc receptor (hFcRn), biotinylated (human) (UniProt P55899); test: SPR, biotinylated hFcRn on streptavidin chip, IgG injected, pH 6.0
# [7] = target: His-tagged FcγRIIa (FcγRIIaR, R&D Systems) (human) (UniProt P12318); test: competition ELISA, His-FcγRIIaR, competitor coated HZ 15C1; concentration cell 0.313445
# [8] = target: His-tagged FcγRI (R&D Systems) (human) (UniProt P12314); test: competition ELISA, His-FcγRI, competitor coated anti-idiotype antibody; 0.08 µg/ml
# [9] = target: His-tagged FcγRI (R&D Systems) (human) (UniProt P12314); test: competition ELISA, His-FcγRI, competitor coated anti-idiotype antibody; 0.4 µg/ml
# [10] = target: CD20 on Raji cells (UniProt P11836); test: flow cytometry, Raji cells; 0.15625 µg/mL
# [11] = target: CD20 on Raji cells (UniProt P11836); test: flow cytometry, Raji cells; 10 µg/mL
# [12] = target: CD20 on Raji cells (UniProt P11836); test: flow cytometry, Raji cells; 0.00061 µg/mL
# [13] = target: His-tagged FcγRIIb (R&D Systems) (human) (UniProt P31994); test: competition ELISA, His-FcγRIIb, competitor coated HZ 15C1; 111.11 µg/ml
# [14] = target: His-tagged FcγRIIa (FcγRIIaR, R&D Systems) (human) (UniProt P12318); test: competition ELISA, His-FcγRIIaR, competitor coated HZ 15C1; concentration cell -0.64016
# [15] = target: His-tagged FcγRIIa (FcγRIIaR, R&D Systems) (human) (UniProt P12318); test: competition ELISA, His-FcγRIIaR, competitor coated HZ 15C1; concentration cell 1.744731
# [16] = target: His-tagged FcγRIIa (FcγRIIaR, R&D Systems) (human) (UniProt P12318); test: competition ELISA, His-FcγRIIaR, competitor coated HZ 15C1; concentration cell 2.22185
# [17] = target: CD20 on Raji cells (UniProt P11836); test: flow cytometry, Raji cells; 0.009766 µg/mL
# [18] = target: mouse neonatal Fc receptor (mFcRn) (mouse) (UniProt Q61559); test: SPR
# [19] = target: His-tagged FcγRI (R&D Systems) (human) (UniProt P12314); test: competition ELISA, His-FcγRI, competitor coated anti-idiotype antibody; 0.016 µg/ml
# [20] = target: His-tagged FcγRIIa (FcγRIIaR, R&D Systems) (human) (UniProt P12318); test: competition ELISA, His-FcγRIIaR, competitor coated HZ 15C1; concentration cell -0.16368
# [21] = target: His-tagged FcγRIIb (R&D Systems) (human) (UniProt P31994); test: competition ELISA, His-FcγRIIb, competitor coated HZ 15C1; 333.33 µg/ml
# [22] = target: His-tagged FcγRIIb (R&D Systems) (human) (UniProt P31994); test: competition ELISA, His-FcγRIIb, competitor coated HZ 15C1; 4.12 µg/ml
# [23] = target: His-tagged FcγRIIa (FcγRIIaR, R&D Systems) (human) (UniProt P12318); test: competition ELISA, His-FcγRIIaR, competitor coated HZ 15C1; concentration cell 1.267617
# [24] = target: His-tagged FcγRI (R&D Systems) (human) (UniProt P12314); test: competition ELISA, His-FcγRI, competitor coated anti-idiotype antibody; 2 µg/ml
# [25] = target: His-tagged FcγRI (R&D Systems) (human) (UniProt P12314); test: competition ELISA, His-FcγRI, competitor coated anti-idiotype antibody; 10 µg/ml
# [26] = target: His-tagged FcγRIIb (R&D Systems) (human) (UniProt P31994); test: competition ELISA, His-FcγRIIb, competitor coated HZ 15C1; 12.35 µg/ml
# [27] = target: FcγRIIIaV with a hexahistidine tag (R&D Systems) (human) (UniProt P08637); test: BLI, His-FcγRIIIaV on anti-penta-His sensor, steady-state model
# [28] = target: His-tagged FcγRI (R&D Systems) (human) (UniProt P12314); test: competition ELISA, His-FcγRI, competitor coated anti-idiotype antibody; 0.0006 µg/ml
# [29] = target: His-tagged FcγRIIa (FcγRIIaR, R&D Systems) (human) (UniProt P12318); test: competition ELISA, His-FcγRIIaR, competitor coated HZ 15C1; concentration cell 2.69897
# [30] = target: His-tagged FcγRIIb (R&D Systems) (human) (UniProt P31994); test: competition ELISA, His-FcγRIIb, competitor coated HZ 15C1; 37.04 µg/ml
# [31] = target: CD20 on Raji cells (UniProt P11836); test: flow cytometry, Raji cells; 2.5 µg/mL
# [32] = target: CD20 on Raji cells (UniProt P11836); test: flow cytometry, Raji cells; 0.625 µg/mL
# [33] = target: His-tagged FcγRIIb (R&D Systems) (human) (UniProt P31994); test: competition ELISA, His-FcγRIIb, competitor coated HZ 15C1; 3000 µg/ml
# [34] = target: His-tagged FcγRIIb (R&D Systems) (human) (UniProt P31994); test: competition ELISA, His-FcγRIIb, competitor coated HZ 15C1; 1000 µg/ml
# Chain of UniProt P11836 (P11836 whole entry): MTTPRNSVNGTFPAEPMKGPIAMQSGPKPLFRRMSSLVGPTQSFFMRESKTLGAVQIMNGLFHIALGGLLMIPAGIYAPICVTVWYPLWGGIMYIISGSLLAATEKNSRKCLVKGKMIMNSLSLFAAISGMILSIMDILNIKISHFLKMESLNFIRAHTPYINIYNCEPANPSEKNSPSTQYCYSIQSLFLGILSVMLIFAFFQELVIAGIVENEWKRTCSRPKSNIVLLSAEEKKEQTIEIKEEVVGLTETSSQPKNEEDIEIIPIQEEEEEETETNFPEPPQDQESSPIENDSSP
# Chain of UniProt P31994 (P31994 46-217 limits assumed): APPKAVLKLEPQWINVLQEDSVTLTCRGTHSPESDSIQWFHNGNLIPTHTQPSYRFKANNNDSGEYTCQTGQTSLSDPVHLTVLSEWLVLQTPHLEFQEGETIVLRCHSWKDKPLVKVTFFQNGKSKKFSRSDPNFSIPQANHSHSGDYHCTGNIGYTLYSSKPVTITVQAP
# Chain of UniProt P12314 (P12314 16-288 limits assumed): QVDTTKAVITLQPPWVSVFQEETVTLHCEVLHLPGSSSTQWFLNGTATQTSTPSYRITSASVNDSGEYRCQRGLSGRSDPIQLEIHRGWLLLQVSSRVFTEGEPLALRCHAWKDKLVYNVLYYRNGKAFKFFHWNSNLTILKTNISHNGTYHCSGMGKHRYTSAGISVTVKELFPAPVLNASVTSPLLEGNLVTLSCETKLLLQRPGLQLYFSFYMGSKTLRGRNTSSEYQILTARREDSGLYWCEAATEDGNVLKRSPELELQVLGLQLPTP
# Chain of UniProt P12318 (P12318 36-218 H167R limits assumed): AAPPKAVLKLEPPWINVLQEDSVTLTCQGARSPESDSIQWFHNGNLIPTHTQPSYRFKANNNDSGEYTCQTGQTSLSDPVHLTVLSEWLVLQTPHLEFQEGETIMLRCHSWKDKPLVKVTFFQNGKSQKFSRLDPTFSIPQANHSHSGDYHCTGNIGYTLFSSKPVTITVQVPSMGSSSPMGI
# Chain of UniProt P08637 (P08637 17-208 F176V limits assumed): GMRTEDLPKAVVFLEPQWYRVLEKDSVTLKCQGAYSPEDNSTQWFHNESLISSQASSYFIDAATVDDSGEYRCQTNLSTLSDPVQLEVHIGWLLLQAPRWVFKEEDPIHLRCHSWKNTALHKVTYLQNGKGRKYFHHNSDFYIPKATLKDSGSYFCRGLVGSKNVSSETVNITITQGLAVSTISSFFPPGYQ
# Chain of UniProt P55899 (P55899 24-297 limits assumed): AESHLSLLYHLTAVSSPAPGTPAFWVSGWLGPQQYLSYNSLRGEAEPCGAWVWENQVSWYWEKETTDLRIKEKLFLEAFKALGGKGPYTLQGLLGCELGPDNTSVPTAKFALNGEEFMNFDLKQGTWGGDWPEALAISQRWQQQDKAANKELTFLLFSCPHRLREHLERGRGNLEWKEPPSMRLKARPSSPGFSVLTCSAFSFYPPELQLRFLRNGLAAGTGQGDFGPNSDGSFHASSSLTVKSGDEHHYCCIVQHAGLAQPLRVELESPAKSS
# Chain of UniProt Q61559 (Q61559 22-297 limits assumed): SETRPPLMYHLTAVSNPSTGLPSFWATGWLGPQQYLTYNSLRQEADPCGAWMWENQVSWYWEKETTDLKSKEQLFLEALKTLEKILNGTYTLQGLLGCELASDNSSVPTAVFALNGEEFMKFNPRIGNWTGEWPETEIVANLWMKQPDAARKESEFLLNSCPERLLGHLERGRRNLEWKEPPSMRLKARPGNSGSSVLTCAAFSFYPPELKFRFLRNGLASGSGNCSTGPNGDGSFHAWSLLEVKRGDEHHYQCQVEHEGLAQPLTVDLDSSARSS
substance,measurement,setting,value
"293S anti-CD20 (monoclonal anti-CD20 antibody obinutuzumab, GA101, produced in 293S cells)",absorbance at 450 nm,[1],0.085 and 0.091 and 0.084
same,flow cytometry signal (name not given),[2],241 and 234 and 210
same,absorbance at 450 nm,[3],3.39 and 3.4 and 3.44
same,absorbance at 450 nm,[4],2.56 and 2.91 and 2.98
same,flow cytometry signal (name not given),[5],28.6 and 27.5 and 23.2
same,Kd,[6],5.6 nM
same,absorbance at 450 nm,[7],2.57 and 2.96 and 2.93
same,absorbance at 450 nm,[8],2.24 and 2.2 and 2.33
same,absorbance at 450 nm,[9],1.14 and 1.1 (2×)
same,flow cytometry signal (name not given),[10],673 (2×) and 644
same,flow cytometry signal (name not given),[11],2640 and 2560 and 2580
same,flow cytometry signal (name not given),[12],14.1 and 12.3 and 11.3
same,absorbance at 450 nm,[13],1.52 and 1.49
same,absorbance at 450 nm,[14],2.6 and 2.88 and 2.98
same,absorbance at 450 nm,[15],2.11 and 2.46 and 2.36
same,absorbance at 450 nm,[16],1.5 and 1.64 and 1.68
same,flow cytometry signal (name not given),[17],76.4 and 79.7 and 72.2
same,Kd,[18],0.258 nM
same,absorbance at 450 nm,[19],3.05 and 3.04 and 3.16
same,absorbance at 450 nm,[20],2.69 and 3.02 and 3.1
same,absorbance at 450 nm,[21],1.06 and 1.1
same,absorbance at 450 nm,[22],2.27 and 1.92
same,absorbance at 450 nm,[23],2.43 and 2.91 and 2.73
same,absorbance at 450 nm,[24],0.388 and 0.379 and 0.377
same,absorbance at 450 nm,[25],0.143 and 0.141
same,absorbance at 450 nm,[26],1.99 and 1.87
same,Kd,[27],500 nM
same,absorbance at 450 nm,[28],3.43 and 3.6 (2×)
same,absorbance at 450 nm,[29],0.684 and 0.732 and 0.671
same,absorbance at 450 nm,[30],1.66 and 1.54
same,flow cytometry signal (name not given),[31],2150 and 2180 and 1920
same,flow cytometry signal (name not given),[32],1500 and 1520 and 1550
same,absorbance at 450 nm,[33],0.284 and 0.274
same,absorbance at 450 nm,[34],0.641 and 0.629
